Data on four molecules can be found in paper doi:10.1101/2023.11.14.566657 (bioRxiv, 2023).

Positions count from the first letter of the chain named.

Data set [1] concerns the target T1, RAD52 wild type (human, UniProt P43351 1-418).
T1 sequence: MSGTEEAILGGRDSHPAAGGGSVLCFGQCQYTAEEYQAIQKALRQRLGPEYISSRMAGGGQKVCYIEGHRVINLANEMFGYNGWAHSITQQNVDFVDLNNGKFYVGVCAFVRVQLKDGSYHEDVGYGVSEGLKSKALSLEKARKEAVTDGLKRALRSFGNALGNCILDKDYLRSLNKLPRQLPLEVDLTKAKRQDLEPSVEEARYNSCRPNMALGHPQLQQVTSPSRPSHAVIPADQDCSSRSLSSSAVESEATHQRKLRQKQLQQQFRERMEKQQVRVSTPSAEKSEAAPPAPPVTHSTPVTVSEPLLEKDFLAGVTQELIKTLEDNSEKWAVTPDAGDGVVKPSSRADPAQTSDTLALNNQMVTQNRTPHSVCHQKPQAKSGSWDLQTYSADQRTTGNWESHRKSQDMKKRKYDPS
The data set is described as follows: mass photometry.

The target of a further data set is RPA (UniProt P27694;P15927;P35244 1-616;1-270;1-121). Briefly: mass photometry.
RPA, sequence (P27694 whole entry, chain 1 of 3): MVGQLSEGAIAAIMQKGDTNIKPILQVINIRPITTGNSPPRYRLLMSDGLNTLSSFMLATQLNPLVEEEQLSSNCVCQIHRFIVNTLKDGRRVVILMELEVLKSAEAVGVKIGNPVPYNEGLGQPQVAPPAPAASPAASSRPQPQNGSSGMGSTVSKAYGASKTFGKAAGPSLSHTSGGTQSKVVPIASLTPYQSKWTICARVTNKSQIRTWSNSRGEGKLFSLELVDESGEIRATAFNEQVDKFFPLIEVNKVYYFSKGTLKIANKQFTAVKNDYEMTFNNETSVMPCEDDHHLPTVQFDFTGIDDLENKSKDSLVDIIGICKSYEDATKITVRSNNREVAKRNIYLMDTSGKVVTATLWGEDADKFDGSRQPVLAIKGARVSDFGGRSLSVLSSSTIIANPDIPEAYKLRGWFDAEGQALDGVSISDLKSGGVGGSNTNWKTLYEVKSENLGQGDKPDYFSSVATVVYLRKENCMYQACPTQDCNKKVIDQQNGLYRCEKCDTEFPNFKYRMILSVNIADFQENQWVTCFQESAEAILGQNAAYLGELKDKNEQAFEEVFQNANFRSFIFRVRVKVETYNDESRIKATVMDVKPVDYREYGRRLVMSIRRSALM
RPA, sequence (P15927 whole entry, chain 2 of 3): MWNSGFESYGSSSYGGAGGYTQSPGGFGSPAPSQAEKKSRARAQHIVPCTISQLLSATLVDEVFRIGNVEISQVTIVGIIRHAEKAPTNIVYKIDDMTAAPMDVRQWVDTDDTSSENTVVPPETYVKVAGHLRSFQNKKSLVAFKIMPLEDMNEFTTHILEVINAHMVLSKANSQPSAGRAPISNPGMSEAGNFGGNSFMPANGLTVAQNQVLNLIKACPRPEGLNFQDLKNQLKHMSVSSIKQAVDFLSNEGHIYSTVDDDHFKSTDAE
RPA, sequence (P35244 whole entry, chain 3 of 3): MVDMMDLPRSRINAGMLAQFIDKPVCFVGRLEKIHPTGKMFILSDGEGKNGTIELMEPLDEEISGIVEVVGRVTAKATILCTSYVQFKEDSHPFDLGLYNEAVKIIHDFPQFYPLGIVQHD
Another data set deals with RAD52 wild type;RPA (human;human?, UniProt P43351;P27694;P15927;P35244 1-418;1-616;1-270;1-121, |). Briefly: mass photometry.
RAD52 wild type;RPA, sequence (P27694 whole entry, chain 2 of 3): as the sequence (P27694 whole entry, chain 1 of 3) above
RAD52 wild type;RPA, sequence (P15927 whole entry, chain 3 of 3): as the sequence (P15927 whole entry, chain 2 of 3) above
RAD52 wild type;RPA, sequence (P35244 whole entry, chain 4 of 3): as the sequence (P35244 whole entry, chain 3 of 3) above
In another data set the target is T2, RAD52 wild type;SMARCAL1 (human;human?, UniProt P43351;Q9NZC9 1-418;1-954, |).
T2 sequence 1: T1 sequence
T2 sequence 2: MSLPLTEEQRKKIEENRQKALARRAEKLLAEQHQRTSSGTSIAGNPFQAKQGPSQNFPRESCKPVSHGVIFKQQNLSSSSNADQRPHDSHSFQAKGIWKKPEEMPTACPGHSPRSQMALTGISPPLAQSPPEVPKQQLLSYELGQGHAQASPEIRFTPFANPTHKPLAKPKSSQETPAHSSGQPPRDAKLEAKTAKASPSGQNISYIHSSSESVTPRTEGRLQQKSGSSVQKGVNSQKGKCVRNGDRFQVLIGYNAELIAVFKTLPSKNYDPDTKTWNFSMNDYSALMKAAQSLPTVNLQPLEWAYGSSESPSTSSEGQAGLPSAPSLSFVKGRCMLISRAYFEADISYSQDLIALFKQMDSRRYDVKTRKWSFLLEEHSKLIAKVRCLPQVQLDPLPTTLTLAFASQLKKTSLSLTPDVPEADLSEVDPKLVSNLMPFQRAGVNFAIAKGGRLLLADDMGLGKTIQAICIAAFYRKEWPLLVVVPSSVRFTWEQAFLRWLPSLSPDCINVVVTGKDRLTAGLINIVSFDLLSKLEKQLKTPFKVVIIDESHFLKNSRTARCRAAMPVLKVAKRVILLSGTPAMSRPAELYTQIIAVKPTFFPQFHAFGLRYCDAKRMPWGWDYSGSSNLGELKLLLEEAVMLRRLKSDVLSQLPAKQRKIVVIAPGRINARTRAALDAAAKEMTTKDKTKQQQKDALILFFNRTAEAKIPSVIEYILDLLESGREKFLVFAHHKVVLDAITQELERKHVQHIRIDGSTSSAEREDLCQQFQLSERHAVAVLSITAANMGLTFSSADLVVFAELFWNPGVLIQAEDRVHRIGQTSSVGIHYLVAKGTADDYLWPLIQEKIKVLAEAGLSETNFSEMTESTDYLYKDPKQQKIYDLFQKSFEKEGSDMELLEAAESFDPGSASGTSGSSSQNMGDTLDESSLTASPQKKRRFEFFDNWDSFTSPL
Briefly: mass photometry.

For the next data set, the target named is T3, RAD52 IBD (human, UniProt P43351 1-418, K152A;R153A).
T3 sequence: T1 sequence with K152A, R153A
Briefly: mass photometry.

Another data set concerns the target T4, SMARCAL1 (UniProt Q9NZC9 1-954).
T4 sequence: T2 sequence 2
The data set is described as follows: mass photometry.

Data set [2] has as its target T1, RAD52 wild type. Briefly: P1 nuclease footprinting.
In data set [3] the target is T1, RAD52 wild type. The data set is described as follows: P1 nuclease footprinting. The source holds these as a separate data set.
The data set “mass photometry” deals with the molecule itself. The data set is described as follows: mass photometry.

B1: heterologous fork, 30 nt gap (#6/#2/#3/#4) (mixed)
DNA 1: GGTATATTCAACAGTTCAACGACGAATGTTTTTTTTTTTTTTTTTTTTTTTTTTTTTTCTTTTGAGGCAGGCATGGTAGC
DNA 2: GCTACCATGCCTGCCTCAAAAGTTCGTAATATGCTACACACTGGAGTACCGGCATTCGTCGTTGAACTGTTGAATATACC
DNA 3: GGTACTCCAGTGTGTAGCATATTACGAACTTTTGAGGCAGGCATGGTAGC
DNA 4: GCTACCATGCCTGCCTCAAAAG
On to B1, for which the binding result with RAD52 wild type [1], with RPA, in the data set with RAD52 wild type;RPA, in the data set with RAD52 wild type;SMARCAL1, with RAD52 IBD and in the data set with SMARCAL1 was “binds” each time.

B2: heterologous fork P1 assay (#5/#2/#3/#4) (mixed)
DNA 1: GGTATATTCAACAGTTCAACGACGAATGTTGTGCATAACGTCGCTCCGTAGCTATACGCTTTTGAGGCAGGCATGGTAGC
DNA 2: B1 DNA 2
DNA 3: B1 DNA 3
DNA 4: GCTACCATGCCTGCCTCAAAAG
Turning to B2, the binding result in the data set with RAD52 wild type [2] was “binds”.

B3: homologous fork, 30 nt leading gap (#1/#2/#3/#4) (mixed)
DNA 1: GGTATATTCAACAGTTCAACGACGAATGTTGGTACTCCAGTGTGTAGCATATTACGAACTTTTGAGGCAGGCATGGTAGC
DNA 2: B1 DNA 2
DNA 3: B1 DNA 3
DNA 4: GCTACCATGCCTGCCTCAAAAG
With B3, in the data set with RAD52 wild type [3], the binding result is given as “binds”.

B4: 6xHis-tagged human RAD52 protein (wild type) (natural protein)
chain: T1 sequence
A word on the stoichiometry N: it is the number of molecules, sites or subunits per partner or assembly. For B4, the “stoichiometry N” value in the data set “mass photometry” was 10.
